Where no end group is shown, it is not given here.

The target of the experiment is Recombinant His-tagged Hsp70 protein, equivalent to HSPA1A. Nature of the experiment: ELISA; peptide ELISA: heat shock proteins coated on MaxiSorp plates (1 µg/well/100 µl, carbonate buffer pH 9.6, 4°C overnight), blocked with PBS 2% BSA; CF-labeled peptides 100, 50, 25 ng/ml, 27°C 30 min; fluorescence counts read. In general terms: ELISA stands for enzyme-linked immunosorbent assay.

B1: carboxy-fluorescein (CF-) labeled 14-mer tumor penetrating peptide (TPP) (peptide)
peptide: TKDNNLLGRFELSG
modifications: also: carboxyfluorescein (CF) label, position not given here
In the case of B1, the fluorescence counts is 1200 counts.

Values taken from publication PMC4148261.
